Measurements from patent publication US20260116937A1 (CHARACTER BIOSCIENCES, published 2026).

B1: complement factor H (CFH) (other)
chain: EDCNELPPRRNTEILTGSWSDQTYPEGTQAIYKCRPGYRSLGNVIMVCRKGEWVALNPLRKCQKRPCGHPGDTPFGTFTLTGGNVFEYGVKAVYTCNEGYQLLGEINYRECDTDGWTNDIPICEVVKCLPVTAPENGKIVSSAMEPDREYHFGQAVRFVCNSGYKIEGDEEMHCSDDGFWSKEKPKCVEISCKSPDVINGSPISQKIIYKENERFQYKCNMGYEYSERGDAVCTESGWRPLPSCEEKSCDNPYIPNGDYSPLRIKHRTGDEITYQCRNGFYPATRGNTAKCTSTGWIPAPRCTLKPCDYPDIKHGGLYHENMRRPYFPVAVGKYYSYYCDEHFETPSGSYWDHIHCTQDGWSPAVPCLRKCYFPYLENGYNQNYGRKFVQGKSIDVACHPGYALPKAQTTVTCMENGWSPTPRCIRVKTCSKSSIDIENGFISESQYTYALKEKAKYQCKLGYVTADGETSGSITCGKDGWSAQPTCIKSCDIPVFMNARTKNDFTWFKLNDTLDYECHDGYESNTGSTTGSIVCGYNGWSDLPICYERECELPKIDVHLVPDRKKDQYKVGEVLKFSCKPGFTIVGPNSVQCYHFGLSPDLPICKEQVQSCGPPPELLNGNVKEKTKEEYGHSEVVEYYCNPRFLMKGPNKIQCVDGEWTTLPVCIVEESTCGDIPELEHGWAQLSSPPYYYGDSVEFNCSESFTMIGHRSITCIHGVWTQLPQCVAIDKLKKCKSSNLIILEEHLKNKKEFDHNSNIRYRCRGKEGWIHTVCINGRWDPEVNCSMAQIQLCPPPPQIPNSHNMTTTLNYRDGEKVSVLCQENYLIQEGEEITCKDGRWQSIPLCVEKIPCSQPPQIEHGTINSSRSSQESYAHGTKLSYTCEGGFRISEENETTCYMGKWSSPPQCEGLPCKSPPEISHGVVAHMSDSYQYGEEVTYKCFEGFGIDGPAIAKCLGEKWSHPPSCIKTDCLSLPSFENAIPMGEKKDVYKAGEQVTYTCATYYKMDGASNVTCINSRWTGRPTCRDTSCVNPPTVQNAYIVSRQMSKYPSGERVRYQCRSPYEMFGDEEVMCLNGNWTEPPQCKDSTGKCGPPPPIDNGDITSFPLSVYAPASSVEYQCQNLYQLEGNKRITCRNGQWSEPPKCLHPCVISREIMENYNIALRWTAKQKLYSRTGESVEFVCKRGYRLSSRSHTLRTTCWDGKLEYPTCAKR
notes: Purified CFH used as control
B2: Var004 (engineered variant of FHL-1) (designed binder)
chain: EDCNELPPRRNTEILTGSWSDQTYPEGTQAIYKCRPGYRSLGNVIMVCRKGEWVALNPLRKCQKRPCGHPGDTPFGTFTLTGGNVFEYGVKAVYTCNEGYQLLGEINYRECDTDGWTNDIPICEVVKCLPVTAPENGKIVSSAMEPDREYHFGQAVRFVCNSGYKIEGDEEMHCSDDGFWSKEKPKCVEISCKSPDVINGSPISQKIIYKENERFQYKCNMGYEYSERGDAVCTESGWRPLPSCEEKSCDNPYIPNGDYSPLRIKHRTGDEITYQCRNGFYPATRGNTAKCTSTGWIPAPRCTLKPCDYPDIKHGGLYHENMRRPYFPVAVGKYYSYYCDEHFETPSGSYWDHIHCTQDGWSPAVPCLRKCYFPYLENGYNQNYGRKFVQGKSIDVACHPGYALPKAQTTVTCMENGWSPTPRCIRVSGGGGSGGGGSGGGGSTLKPCDYPDIKHGGLYHENMRRPYFPVAVGKYYSYYCDEHFETPSGSYWDHIHCTQDGWSPAVPCLRKCYFPYLENGYNQNYGRKFVQGKSIDVACHPGYALPKAQTTVTCMENGWSPTPRCIRVSFTL
notes: Tested as purified protein or as CHO culture supernatant; also called FHL-1 engineered variant
B3: Factor H-like protein 1 (FHL-1) (other)
chain: EDCNELPPRRNTEILTGSWSDQTYPEGTQAIYKCRPGYRSLGNVIMVCRKGEWVALNPLRKCQKRPCGHPGDTPFGTFTLTGGNVFEYGVKAVYTCNEGYQLLGEINYRECDTDGWTNDIPICEVVKCLPVTAPENGKIVSSAMEPDREYHFGQAVRFVCNSGYKIEGDEEMHCSDDGFWSKEKPKCVEISCKSPDVINGSPISQKIIYKENERFQYKCNMGYEYSERGDAVCTESGWRPLPSCEEKSCDNPYIPNGDYSPLRIKHRTGDEITYQCRNGFYPATRGNTAKCTSTGWIPAPRCTLKPCDYPDIKHGGLYHENMRRPYFPVAVGKYYSYYCDEHFETPSGSYWDHIHCTQDGWSPAVPCLRKCYFPYLENGYNQNYGRKFVQGKSIDVACHPGYALPKAQTTVTCMENGWSPTPRCIRVSFTL
notes: Control protein, purified or as CHO culture supernatant; also called native FHL-1

Target: T1, human C3b (human, UniProt P01024 749-1663; P01024 23-667)
T1 construct: Coated on ELISA plates
T1 sequence (P01024 749-1663, chain 1 of 2): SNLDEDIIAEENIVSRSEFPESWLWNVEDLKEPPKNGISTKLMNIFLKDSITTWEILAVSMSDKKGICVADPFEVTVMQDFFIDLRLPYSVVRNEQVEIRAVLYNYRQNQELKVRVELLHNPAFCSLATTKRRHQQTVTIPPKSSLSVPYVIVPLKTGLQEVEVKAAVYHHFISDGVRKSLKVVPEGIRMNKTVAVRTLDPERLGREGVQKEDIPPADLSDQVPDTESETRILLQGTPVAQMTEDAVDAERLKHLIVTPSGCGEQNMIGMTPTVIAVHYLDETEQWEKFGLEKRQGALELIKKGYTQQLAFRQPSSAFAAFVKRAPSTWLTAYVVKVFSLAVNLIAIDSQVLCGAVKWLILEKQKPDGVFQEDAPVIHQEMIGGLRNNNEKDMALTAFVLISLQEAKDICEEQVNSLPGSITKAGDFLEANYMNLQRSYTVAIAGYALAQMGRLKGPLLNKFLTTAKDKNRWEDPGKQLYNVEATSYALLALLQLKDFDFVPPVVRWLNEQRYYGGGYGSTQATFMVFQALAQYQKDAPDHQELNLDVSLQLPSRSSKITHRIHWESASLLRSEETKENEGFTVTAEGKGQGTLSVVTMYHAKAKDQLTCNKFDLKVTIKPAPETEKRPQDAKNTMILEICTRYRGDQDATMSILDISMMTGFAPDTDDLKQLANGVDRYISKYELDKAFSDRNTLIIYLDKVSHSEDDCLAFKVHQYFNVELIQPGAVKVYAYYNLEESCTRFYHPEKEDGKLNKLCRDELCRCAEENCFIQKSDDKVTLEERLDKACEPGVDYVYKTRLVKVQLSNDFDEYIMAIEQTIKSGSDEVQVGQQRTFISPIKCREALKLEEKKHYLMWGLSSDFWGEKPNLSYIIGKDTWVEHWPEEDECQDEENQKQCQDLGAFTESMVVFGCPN
T1 sequence (P01024 23-667, chain 2 of 2): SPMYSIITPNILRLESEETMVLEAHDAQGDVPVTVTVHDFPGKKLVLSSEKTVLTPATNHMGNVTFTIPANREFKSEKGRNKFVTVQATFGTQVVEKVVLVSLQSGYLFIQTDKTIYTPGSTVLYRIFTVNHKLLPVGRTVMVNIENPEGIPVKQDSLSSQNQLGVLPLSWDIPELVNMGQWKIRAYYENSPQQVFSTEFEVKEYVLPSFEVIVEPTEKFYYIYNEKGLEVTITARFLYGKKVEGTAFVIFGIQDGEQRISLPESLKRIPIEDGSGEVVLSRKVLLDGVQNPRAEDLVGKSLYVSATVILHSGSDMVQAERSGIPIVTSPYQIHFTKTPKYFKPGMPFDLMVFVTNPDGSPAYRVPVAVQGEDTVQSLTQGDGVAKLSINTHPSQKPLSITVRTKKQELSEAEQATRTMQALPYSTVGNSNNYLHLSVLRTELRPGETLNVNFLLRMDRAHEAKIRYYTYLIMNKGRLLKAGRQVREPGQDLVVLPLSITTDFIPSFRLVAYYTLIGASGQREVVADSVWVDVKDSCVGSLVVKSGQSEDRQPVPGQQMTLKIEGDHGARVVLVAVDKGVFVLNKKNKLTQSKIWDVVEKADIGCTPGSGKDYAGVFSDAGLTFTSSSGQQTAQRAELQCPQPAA
Experiment: ELISA on C3b-coated plates, absorbance at 450 nm
Experimental: A representative example of an FHL-1 engineered variant (e.g., a polypeptide of SEQ ID NO: 21) was compared with CFH and FHL-1 for C3b binding activity as presented in FIGS. 14A and 14B. […] In general, the data was derived from measuring binding on C3b coated plates via ELISA for test proteins (either as purified proteins or as culture supernatants from CHO cells transfected with expression vectors encoding test proteins). C3b binding activity was measured via absorbance at 450 nm. Mean+/−SEM absorbance values are shown with nonlinear sigmoidal 4PL fit. Of note, the FHL-1 engineered variant (e.g., Var 004, SEQ ID NO: 21) has increased C3b binding activity over native FHL-1.

Binding result, binds:
B1
B2
B3
